Data as given in patent US20240317840A1.

Key:
[1] = target: HBsAg AD serotype (Hepatitis B virus); assay: SPR epitope binning; competitor (1st, saturating Ab): CR8087
[2] = target: HBsAg AY serotype (Hepatitis B virus); assay: as above
[3] = target: HBsAg AD serotype (Hepatitis B virus); assay: SPR epitope binning; competitor (1st, saturating Ab): NOV3540
[4] = target: HBsAg AY serotype (Hepatitis B virus); assay: as above
[5] = target: HBsAg AD serotype (Hepatitis B virus); assay: SPR epitope binning; competitor (1st, saturating Ab): NOV3832
[6] = target: HBsAg AY serotype (Hepatitis B virus); assay: as above
[7] = target: HBsAg AD serotype (Hepatitis B virus); assay: SPR epitope binning; competitor (1st, saturating Ab): NOV3841
[8] = target: HBsAg AY serotype (Hepatitis B virus); assay: as above
[9] = target: HBsAg AD serotype (Hepatitis B virus); assay: SPR epitope binning; competitor (1st, saturating Ab): NOV3842
[10] = target: HBsAg AY serotype (Hepatitis B virus); assay: as above
[11] = target: HBsAg AD serotype (Hepatitis B virus); assay: SPR epitope binning; competitor (1st, saturating Ab): HBC34 (self)
[12] = target: HBsAg AY serotype (Hepatitis B virus); assay: as above
[13] = target: HBsAg of HBV genotype D, serotype ayw (Hepatitis B virus); assay: cell-based or functional assay

binding of second antibody (% of its binding as first antibody) [1]	binding of second antibody (% of its binding as first antibody) [2]	binding of second antibody (% of its binding as first antibody) [3]	binding of second antibody (% of its binding as first antibody) [4]	binding of second antibody (% of its binding as first antibody) [5]	binding of second antibody (% of its binding as first antibody) [6]	binding of second antibody (% of its binding as first antibody) [7]	binding of second antibody (% of its binding as first antibody) [8]	binding of second antibody (% of its binding as first antibody) [9]	binding of second antibody (% of its binding as first antibody) [10]	binding of second antibody (% of its binding as first antibody) [11]	binding of second antibody (% of its binding as first antibody) [12]	Substance	Virus neutralization EC50 [13] [nM]
146	166	121	131	126	257	124	151	121	134	0	0	HBC34 (antibody)	–
–	–	–	–	–	–	–	–	–	–	–	–	Neg. Control (antibody)	> 500
